US20190359666A1

What was measured:
nrgECD = nrgECD (UniProt Q02297); experiment: Biacore SPR, immobilised nrgECD
nrgEGF = nrgEGF (UniProt Q02297); experiment: Biacore SPR
nrgbx = nrgbx (UniProt Q02297); experiment: cell-based or functional assay
Chain of nrgbx (Q02297 other isoform, or with tags, fused parts or gaps limits assumed): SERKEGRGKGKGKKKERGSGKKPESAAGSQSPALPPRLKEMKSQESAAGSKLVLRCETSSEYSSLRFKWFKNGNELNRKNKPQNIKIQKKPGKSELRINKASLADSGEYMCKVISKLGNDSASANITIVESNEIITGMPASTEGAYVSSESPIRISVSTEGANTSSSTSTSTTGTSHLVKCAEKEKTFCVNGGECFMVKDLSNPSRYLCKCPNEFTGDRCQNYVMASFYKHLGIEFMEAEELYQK

Chain of IGFBP3-Fc-VEGF-ErbB4 (Fc fusion) (chain): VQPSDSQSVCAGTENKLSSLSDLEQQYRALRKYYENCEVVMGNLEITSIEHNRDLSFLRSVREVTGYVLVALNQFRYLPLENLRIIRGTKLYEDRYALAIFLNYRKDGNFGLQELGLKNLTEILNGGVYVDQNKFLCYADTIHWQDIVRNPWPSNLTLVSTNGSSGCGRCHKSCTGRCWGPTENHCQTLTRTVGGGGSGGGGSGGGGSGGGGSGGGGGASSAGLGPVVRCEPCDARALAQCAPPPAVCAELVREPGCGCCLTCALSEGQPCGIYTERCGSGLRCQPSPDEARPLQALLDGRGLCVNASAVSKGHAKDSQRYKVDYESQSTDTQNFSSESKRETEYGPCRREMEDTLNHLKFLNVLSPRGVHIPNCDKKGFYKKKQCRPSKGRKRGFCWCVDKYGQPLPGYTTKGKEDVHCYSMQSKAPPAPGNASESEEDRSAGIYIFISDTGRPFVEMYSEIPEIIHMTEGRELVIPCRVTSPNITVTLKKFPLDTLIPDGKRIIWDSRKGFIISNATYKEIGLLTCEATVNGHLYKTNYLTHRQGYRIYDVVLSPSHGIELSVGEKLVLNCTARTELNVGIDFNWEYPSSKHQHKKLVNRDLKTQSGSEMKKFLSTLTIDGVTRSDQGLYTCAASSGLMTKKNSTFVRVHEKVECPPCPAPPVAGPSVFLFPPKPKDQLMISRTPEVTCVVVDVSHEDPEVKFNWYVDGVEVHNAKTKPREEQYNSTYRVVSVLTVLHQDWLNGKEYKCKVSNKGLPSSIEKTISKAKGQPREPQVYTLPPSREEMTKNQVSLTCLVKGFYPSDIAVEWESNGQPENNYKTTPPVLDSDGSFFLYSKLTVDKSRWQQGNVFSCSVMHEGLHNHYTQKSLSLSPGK
Chain of IGFBP3-Fc-ErbB4 (Fc fusion) (chain): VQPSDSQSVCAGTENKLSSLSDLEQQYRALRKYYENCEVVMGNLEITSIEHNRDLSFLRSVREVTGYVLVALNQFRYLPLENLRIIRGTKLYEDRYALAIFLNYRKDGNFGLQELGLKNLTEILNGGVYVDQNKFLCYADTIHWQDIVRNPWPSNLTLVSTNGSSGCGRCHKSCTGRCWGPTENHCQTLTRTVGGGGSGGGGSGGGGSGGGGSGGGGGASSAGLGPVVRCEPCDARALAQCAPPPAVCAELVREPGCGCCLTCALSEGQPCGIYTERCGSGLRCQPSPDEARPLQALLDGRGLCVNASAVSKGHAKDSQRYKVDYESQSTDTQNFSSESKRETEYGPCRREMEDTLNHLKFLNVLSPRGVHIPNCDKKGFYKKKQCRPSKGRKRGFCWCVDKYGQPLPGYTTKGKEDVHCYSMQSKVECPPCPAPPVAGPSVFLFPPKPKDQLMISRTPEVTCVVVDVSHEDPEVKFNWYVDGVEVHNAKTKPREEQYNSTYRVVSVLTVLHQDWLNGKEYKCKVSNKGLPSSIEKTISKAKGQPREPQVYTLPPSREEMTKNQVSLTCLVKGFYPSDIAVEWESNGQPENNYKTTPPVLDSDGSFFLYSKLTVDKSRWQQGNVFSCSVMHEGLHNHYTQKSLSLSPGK
Chain of IGFBP3-Fc (Fc fusion) (chain): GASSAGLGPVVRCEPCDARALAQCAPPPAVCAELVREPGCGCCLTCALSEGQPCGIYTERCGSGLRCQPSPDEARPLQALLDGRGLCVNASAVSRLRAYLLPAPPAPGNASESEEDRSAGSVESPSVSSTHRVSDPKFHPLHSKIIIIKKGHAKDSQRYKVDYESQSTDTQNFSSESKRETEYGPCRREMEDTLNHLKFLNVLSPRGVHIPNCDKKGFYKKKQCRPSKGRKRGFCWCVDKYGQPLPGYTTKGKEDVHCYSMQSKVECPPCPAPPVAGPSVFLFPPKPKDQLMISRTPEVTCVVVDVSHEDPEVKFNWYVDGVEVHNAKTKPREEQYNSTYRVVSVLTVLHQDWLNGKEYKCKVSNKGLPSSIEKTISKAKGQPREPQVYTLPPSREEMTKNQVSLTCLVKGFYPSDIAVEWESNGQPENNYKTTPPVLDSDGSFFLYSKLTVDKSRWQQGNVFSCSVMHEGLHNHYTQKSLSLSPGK
Chain of IGFBP3-Fc-VEGF (Fc fusion) (chain): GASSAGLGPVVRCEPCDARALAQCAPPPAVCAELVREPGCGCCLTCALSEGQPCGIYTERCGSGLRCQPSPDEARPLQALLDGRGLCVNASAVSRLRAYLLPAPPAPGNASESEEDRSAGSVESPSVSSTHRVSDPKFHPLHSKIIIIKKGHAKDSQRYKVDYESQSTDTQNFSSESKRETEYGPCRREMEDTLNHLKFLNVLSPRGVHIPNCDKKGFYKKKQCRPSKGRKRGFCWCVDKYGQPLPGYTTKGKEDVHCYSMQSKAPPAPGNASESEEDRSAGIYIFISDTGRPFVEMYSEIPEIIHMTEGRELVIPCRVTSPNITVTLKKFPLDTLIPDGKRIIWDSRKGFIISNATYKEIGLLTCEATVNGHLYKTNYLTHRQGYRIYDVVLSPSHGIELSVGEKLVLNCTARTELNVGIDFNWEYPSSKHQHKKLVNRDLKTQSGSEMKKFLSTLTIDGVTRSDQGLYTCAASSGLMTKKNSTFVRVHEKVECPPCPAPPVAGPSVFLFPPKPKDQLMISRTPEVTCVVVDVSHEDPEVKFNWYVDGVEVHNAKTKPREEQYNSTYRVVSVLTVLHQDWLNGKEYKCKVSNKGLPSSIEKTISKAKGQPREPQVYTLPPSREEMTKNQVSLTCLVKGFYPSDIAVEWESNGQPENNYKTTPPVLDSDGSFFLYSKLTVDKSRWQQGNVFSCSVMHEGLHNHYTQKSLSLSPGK

| Substance | Kd (nrgECD) [nM] | Kd (nrgEGF) [nM] | IC50 in inhibiting neuregulin-induced proliferation (nrgbx) [nM] |
| --- | --- | --- | --- |
| IGFBP3-Fc (Fc fusion) | 5.3 |  |  |
| IGFBP3-Fc-ErbB4 (Fc fusion) | 0.004 | 6 |  |
| IGFBP3-Fc-VEGF (Fc fusion) | 0.18 |  |  |
| IGFBP3-Fc-VEGF-ErbB4 (Fc fusion) | 0.00011 | 11 |  |
| chimera erbB4-A (Fc fusion) |  |  | 14 |
